From patent US6015560
Read-outs that look alike come from different tables or passages of the source.

Key:
[1] = molecular target: integrin complement receptor 3 (CR3) on human leukocytes (human) (UniProt P11215)
[2] = molecular target: integrin complement receptor 3 (CR3) on human leukocytes (human) (UniProt P11215); remark: listed apart in the source
[3] = molecular target: integrin complement receptor 3 (CR3) on human leukocytes (human) (UniProt P11215); remark: listed apart in the source
[4] = molecular target: integrin complement receptor 3 (CR3) on human leukocytes (human) (UniProt P11215); assay: competition: 125I-Factor X binding to fMLP-stimulated human neutrophils
[5] = molecular target: integrin complement receptor 3 (CR3) on human leukocytes (human) (UniProt P11215); remark: listed apart in the source
[6] = molecular target: integrin complement receptor 3 (CR3) on human leukocytes (human) (UniProt P11215); assay: macrophages spread on antibody-coated wells; residual CD11b/CD18 detected with C3bi-coated erythrocytes
[7] = molecular target: integrin complement receptor 3 (CR3) on human leukocytes (human) (UniProt P11215); remark: listed apart in the source

With “Filamentous hemagglutinin (FHA) of Bordetella pertussis, native purified protein (from UniProt P12255) (ligand)” the % Inhibition of TEM (transendothelial migration of neutrophils) [1] was 82%, the % inhibition of 125I-Factor X binding [2] was 70% and the concentration at which inhibition of neutrophil adherence was lost [3] was 0.001 µM. For the same substance, the IC50 [4] was 100 nM.
In the case of mAb IB4 against CD18 (antibody), the inhibition of neutrophil adherence to TNF-stimulated HUVEC [5] is reported as 38%, the % reduction of the binding of C3bi-coated erythrocytes to macrophages [6] is reported as 67% and the inhibition of transendothelial migration of neutrophils [7] is reported as 73%. It also gave a % inhibition of 125I-Factor X binding [4] of 53%.
“mAb W6/32 against HLA class I antigen (antibody)” was tested, and the inhibition of transendothelial migration of neutrophils [7] was 6%.
